Experimental data: US20010024831A1

Target: specific antigen (aa 245-258 of the GCN4 leucine zipper) fused to LexA (yeast)
Assay: yeast two hybrid, LacZ reporter, bait LexA-GCN4 leucine zipper; Empty Vector is printed as 0.18

Rel. β-gal. activity %: 0.19%
Substance: Gal4 AD-AL5 scFv fusion (ampicillin-binding control scFv AL5) (from UniProt P04386 768-881)
